Reference: patent US20200109398

Test system: R4Al (R4_AL) retrotransposase (Ascaris lumbricoides)
Test: cell_activity
Details: ddPCR 3' junction, HEK293T, plasmid cis

## human rDNA R4 target site
  activity (copies/genome): 0.085
